# From publication PMC11212022
# Molecular target: recombinant protein A/G (Pierce)
# Assay: plasmonic metamaterial refractive-index sensing (resonance wavelength shift, reflection probe); protein A/G (500 ug/mL in PBS, 45 min) physisorbed on gold nanodiscs of the sensor, washed 30 min with PBS; IgG 50 ug/mL applied in a microfluidic cell, plateau after 45 min, washed 30 min with …; reflection read at 1 min intervals
substance,measurement,value
"antimouse IgG (labeled with FITC) produced in goat (F5262, Sigma-Aldrich) (antibody)",resonance wavelength shift,2 nm
